# Test results taken from patent publication US20180036395A1, “DOSAGE AND ADMINISTRATION OF MONOSPECIFIC AND BISPECIFIC ANTI-IGR-1R AND ANTI-ERBB3 ANTIBODIES” (Merrimack Pharmaceuticals, Inc., priority 2012, published 2018).
# B1: P4-G1-M1.3: anti-IGF-1R+anti-ErbB3 polyvalent bispecific antibody, IgG1-(scFv)2 (SEQ ID NO:148 and SEQ ID NO:149) (protein)
# chain 1: EVQLLQSGGGLVQPGGSLRLSCAASGFLFSSYPMHWVRQAPGKGLEWVGSISPSGGATPYADSVKGRFTISRDNSKNTLYLQMNSLRPEDTAVYYCAKDFYNILTGNAFDKWGQGTSVTVSSASTGGGGSGGGGSGGGGSGGGGSDIQLTQSPSSLSASLGDRVTITCRASQGISSYLAWYQQKPGKAPKLLIYAGSTPQSGVPSRFSGSGSGTEFTLTISSLQPEDSGTYYCQQYWTWPLTFGGGTKVEIKRT
# chain 2: EVQLVESGGGLVQPGRSLRLSCAASGFTFDDYAMHWVRQAPGKGLEWVSGISWNSGSTGYADSVKGRFTISRDNAKNSLYLQMNSLRAEDTALYYCARDLGYNQWLEGFDYWGQGTLVTVSSASTGGGGSGGGGSGGGGSGGGGSSSELTQDPAVSVALGQTVRITCQGDSLRSYYASWYQQKPGQAPVLVIYGKNNRPSGIPDRFSGSSSGNTASLTITGAQAEDEADYYCMSRDHPGNQWVFGGGTKVTVLG
# modifications: Synthetic polypeptide:Anti-IGF-1R scFvs M76; Synthetic polypeptide:Anti-ErbB3 scFvs P6L
# Assays:
# BxPC-3 cells = test: In vitro signaling ELISA, KRAS wild-type cells; assay type: cell-based, human; settings: combination 500 nM P4-G1-M1.3 + 250 nM GSK1120212, 24 hours, 10% serum, FIG. 3
# Description: (§1) Cells were treated with 500 nM P4-G1-M1.3, 250 nM GSK1120212 or the combination for 24 hours in 10% serum and ELISA assays were performed. The data was normalized to 10% serum without treatment.
# (§2) The preclinical models to support this example are performed using BxPC-3 (KRAS wild-type) and KP4 (KRAS mutant) cell lines.
# [1] = tested on: non-small cell lung cancer (NSCLC); test: Treatment of patients with non-small cell lung cancer; assay type: in vivo, human; settings: everolimus + P4-G1-M1.3
# Description: (§3) P4-G1-M1.3 is formulated in 20 mM histidine, 100 mM arginine-HCl, 3% sucrose, at pH 5.5 supplemented with 0.002-0.02% of Tween® 80 at concentration range 5-15 mg/mL. P4-G1-M1.3 is administered to patients at 6 mg/kg, 12 mg/kg, 20 mg/kg, 30 mg/kg, 40 mg/kg, 50 mg/kg or 60 mg/kg q7d, ql4d, q21d, or q28d with a loading dose of 12 mg/kg, 20 mg/kg, 40 mg/kg, 40 mg/kg or 60 mg/kg Everolimus is administered to patients at 2.5 mg, 5 mg, or 10 mg orally once a day or once every other day.
# Patients with non-small cell lung cancer (NSCLC) are treated by administration of either monotherapy with an effective amount of everolimus or an effective amount of P4-G1-M1.3, or with combination therapy comprising or consisting of administration of both the effective amount of everolimus and the effective amount of P4-G1-M1.3. P4-G1-M1.3 and everolimus are prepared and dosed as described in Example 1.
# KP4 cells = test: In vitro signaling ELISA, KRAS mutant cells; assay type: cell-based, human; settings: combination 500 nM P4-G1-M1.3 + 250 nM GSK1120212, 24 hours, 10% serum, FIG. 3
# Description: as §1, §2
# [2] = tested on: Caki-1 renal cell carcinoma cancer cells; test: Caki-1 renal cell carcinoma xenograft study; assay type: in vivo, human
# Description: The y-axis represents mean tumor volume in mm^3 and the x-axis represents time in days.
# For each of the xenograft studies below, cells are resuspended 1:1 with PBS:Growth factor-reduced Matrigel® and injected subcutaneously into Nu/Nu mice. Tumors are allowed to develop for 8 days. Antibodies are injected intraperitoneally every 3 days (q3d) at the indicated doses/mouse. Tumor lengths and widths are measured twice a week manually by caliper, and tumor volume calculated using the following formula: π/6(L×W^2). Each arm of a study contains 10 animals. All studies are carried out using methods approved by an internal IACUC panel. […]
# BxPC-3 tumors = test: BxPC-3 xenograft pharmacodynamic (PD) study, western blotting of tumor lysates; assay type: in vivo, human; settings: BxPC-3 PD study tumors
# Description: BxPC-3 mouse xenograft models are established using 5×10^6 BxPC-3 cells that are resuspended 1:1 with PBS:Growth factor-reduced Matrigel® and injected subcutaneously into Nu/Nu mice. Tumors are allowed to develop for 8 days. Antibodies are injected intraperitoneally every 3 days (q3d) for 2 rounds of dosing.
# For the BxPC-3 PD study, 4 treatment groups are established, each containing 4 mice. These included control, P4-G1-M1.3 (q3d, 600 μg), gemcitabine (q3d, 150 mg/kg) and P4-G1-M1.3+gemcitabine (combined individual doses). Tumors are excised on either day 19 or day 28, resulting in a total of 8 groups.
# Tumors are initially weighed and pulverized in a CryoPrep® tissue pulverizer (Covaris). Tissue Extraction Reagent 1 (TER1, Life Technologies™) containing protease and phosphatase inhibitors was added to the tumor at a ratio of lml TER1 per 100 mg of tissue. Samples are incubated on ice for 30 minutes to solubilize tissue and put through a QIAshredder™ column (Qiagen) according to the manufacturer's protocol. A BCA assay (Pierce) is performed to determine protein concentration according to the manufacturer's protocol.
# Buffer containing β-Mercaptoethanol (β-ME) is added and lysates are boiled for 5 minutes at 95° C. Approximately 40 μg of protein and two ladders (Invitrogen) are run on each well of an 18-well gel (BioRad). Gels are run at 150 volts constant for approximately 90 minutes and transferred to nitrocellulose membranes using the 8 minute transfer program of the iBlot® (Invitrogen) transfer system. Membranes are blocked in Odyssey® Blocking Buffer (Licor® Biosciences) for 1 hour at room temperature, and then incubated with primary antibodies overnight at 4° C. in 5% BSA in TBS-T. All antibodies are purchased from Cell Signaling and used at the recommended dilution. The following day membranes are washed 3×5 minutes each with TBS-T and then incubated with anti-Rabbit IgG—DyLight® 800 (Cell Signaling) or anti-Rabbit IRDye® 800 (Licor® Biosciences) at 1:10,000-15,000 in 5% milk in TBS-T for 1 hour at room temperature. Membranes were then washed 3×5 minutes each with TBS-T and scanned using the Licor® Odyssey® system (Licor® Biosciences). Intensities are quantified using Image Studio 2.0 and normalized to β-Actin levels.
# Using BxPC-3 xenografts, mice with control tumors were compared to those treated with monotherapy with P4-G1-M1.3, monotherapy with gemcitabine or combination therapy with P4-G1-M1.3 and gemcitabine.
# [3] = tested on: Ewing's sarcoma or metastatic pancreatic cancer; test: Treatment of patients with Ewing's sarcoma or metastatic pancreatic cancer; assay type: in vivo, human; settings: irinotecan or nanoliposomal irinotecan + P4-G1-M1.3
# Description: as §3
# Patients with Ewing's sarcoma or metastatic pancreatic cancer are treated with a combination of an effective amount of irinotecan (Camptosar®) or nanoliposomal irinotecan and an effective amount of P4-G1-M1.3. P4-G1-M1.3 is formulated and administered as described above (e.g., Example 1). Nanoliposomal irinotecan is given i.v. at 80 mg/m^2 or 120 mg/m^2 q3w. Camptosar® is administered per manufacturer's directions.
# [4] = tested on: hepatocellular carcinoma (HCC); test: Treatment of patients with hepatocellular carcinoma; assay type: in vivo, human
# Description: as §3
# Patients with hepatocellular carcinoma (HCC) are treated with P4-G1-M1.3 monotherapy. Patients are dosed with P4-G1-M1.3 as described in Example 1 (second line in patients refractory to sorafenib). […] Preclinical data to support this example may be obtained using HepG2 cells in vitro and in vivo.
# Patients with hepatocellular carcinoma (HCC) are treated with a combination of an effective amount of sorafenib and an effective amount of P4-G1-M1.3. Patients are dosed with P4-G1-M1.3 as described in Example 1. Patients are dosed with sorafenib at 400 mg daily. […] Preclinical data to support this example may be obtained using HepG2 cells in vitro and in vivo.
# melanoma = test: Treatment of patients with melanoma; assay type: in vivo, human; settings: vemurafenib or dabrafenib + P4-G1-M1.3
# Description: as §3
# Patients with melanoma are treated by administration of either monotherapy with an effective amount of vemurafenib (Zelboraf®) or an effective amount of P4-G1-M1.3, or with combination therapy comprising or consisting of administration of both the effective amount of vemurafenib or dabrafenib and the effective amount of P4-G1-M1.3. P4-G1-M1.3 is formulated and administered as described above in Example 1. Vemurafenib is given orally at 960 mg 1-2 times daily. Dabrafenib is administered as administered in dabrafenib phase III clinical trials.
# pancreatic carcinoma = test: Treatment of patients with pancreatic cancer; assay type: in vivo, human
# Description: as §3
# Patients with pancreatic carcinoma are treated with a combination of an effective amount of gemcitabine, cytarabine, capecitabine, or 5-fluorouracil (5-FU) and an effective amount of P4-G1-M1.3. Patients are dosed with P4-G1-M1.3 as described in Example 1. Patients are dosed with the manufacturer's recommended dose of gemcitabine, capecitabine or 5-FU.
# Patients with pancreatic cancer (KRAS wild-type and KRAS mutant) are treated with a combination of an effective amount of a MEK inhibitor (e.g., GSK1120212, BAY 86-9766 or AZD6244) and an effective amount of P4-G1-M1.3. Patients are dosed with P4-G1-M1.3 as described in Example 1. The clinical dose of MEK inhibitor is the dose used for that inhibitor in phase II or phase III clinical trials.
molecule,measurement,setting,value
B1,"signaling (pAkt Ser473, pERK)",BxPC-3 cells,inhibition of signaling
same,treatment outcome,[1],combinatorially enhanced outcome
same,"signaling (pAkt Ser473, pERK)",KP4 cells,inhibition of signaling
same,response to everolimus (tumor growth),"[2]; Caki-1 xenograft in Nu/Nu mice, 3mpk everolimus+500 μg P4-G1-M1.3, FIG. 1",potentiates responses to everolimus
same,tumor growth (mean tumor volume),"[2]; Caki-1 xenograft in Nu/Nu mice, P4-G1-M1.3 at 500, 300, or 100 μg, FIG. 1",suppresses tumor growth
same,tumor growth,"[2]; Caki-1 xenograft, Example 12",suppresses tumor growth
same,response to sirolimus,"[2]; Caki-1 xenograft, combination with sirolimus",potentiates responses to sirolimus
same,ERK phosphorylation,BxPC-3 tumors; FIG. 2H,inhibits ERK phosphorylation
same,apoptosis-inducing activity of gemcitabine (survivin),"BxPC-3 tumors; P4-G1-M1.3 600 μg + gemcitabine 150 mg/kg q3d, FIG. 2H",potentiates apoptosis-inducing activity of gemcitabine
same,"level of receptor complexes (IGF-1R, Insulin Receptor, EGFR, ErbB3, ErbB2)","BxPC-3 tumors; P4-G1-M1.3 q3d 600 μg, FIG. 2A-2C",downregulates receptor complexes
same,"PI3K/AKT/mTOR signaling (phospho-AKT, phospho-FoxO, phospho-PDK1, phospho-mTOR, phospho-S6, pRAS40, p4EB-PB1)","BxPC-3 tumors; P4-G1-M1.3 q3d 600 μg, FIG. 2D-2G, 2I, 2J",inhibits PI3K/AKT/mTOR signaling
same,treatment outcome,[3],combinatorially enhanced outcome
same,"HCC symptoms (e.g., time to progression or progression-free survival)","[4]; P4-G1-M1.3 monotherapy, second line in patients refractory to sorafenib, vs untreated historical controls or best supportive care",statistically significant improvement in HCC symptoms
same,treatment outcome,"[4]; patients with HCC, sorafenib 400 mg daily + P4-G1-M1.3",combinatorially enhanced outcome
same,treatment outcome,melanoma,combinatorially enhanced outcome
same,treatment outcome,"pancreatic carcinoma; pancreatic cancer (KRAS wild-type and KRAS mutant), MEK inhibitor (GSK1120212, BAY 86-9766 or AZD6244) + P4-G1-M1.3",combinatorially enhanced outcome
same,treatment outcome,"pancreatic carcinoma; patients with pancreatic carcinoma, gemcitabine, cytarabine, capecitabine, or 5-fluorouracil + P4-G1-M1.3",combinatorially enhanced outcome
